Reference: the supplement of paper PMC7877785
± gives the uncertainty stated by the source.

Experiment: self-splicing fitness, log relative to wild type (ln ratio); higher = more splicing; Tetrahymena group I intron in knt gene, E. coli kanamycin selection, DiMSum; sequences stand for … in CUCUCU…GGAGGGAAAAGUUAUCAGGCAUGCACCUGGUAGCUAGUCUUUAAACCAAUAGAUUGCAUCGGUUUAAAAGGCAAGACCGUCAAAUUGCGGGAAAGGGGUCAACAGCCGUUCAGUACCAAGUCUCAGGGGAAACUUUGAGAUGGCCUUGCAAAGGGUAUGGUAAUAAGCUGACGGACAUGGUCCUAACCACGCAGCCAAGUCCUAAGUCAACAGAUCUUCUGUUGAUAUGGAUGCAGUUCACAGACUAAAUGUCGGUCGGGGAAGAUGUAUUCUUCUCAUAAGAUAUAGUCGGACCUCUCCUUAAUGGGAGCUAGCGGAUGAAGUGAUGCAACACUGGAGCCGCUGGGAACUAAUUUGUAUGCGAAAGUAUAUUGAUUAGUUUUGGAGUACUCGUGGUCG
Procedure, shortened: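 Fitness was computed with DiMSum as the error-weighted combination of replicate fold changes, kanamycin versus none, each normalised to wild type. The library randomised all eight intron nucleotides of the P1ex region, with the intron placed in the knt kanamycin-resistance gene on pET-22b(+) in E. coli BL21(DE3). Six replicate transformations were grown overnight at 37°C or 30°C on LB agar with or without 25 μg/mL kanamycin, plus 100 μg/mL carbenicillin, 50 μM IPTG and 0.2% rhamnose. Pooled colonies were amplicon-sequenced on an Illumina HiSeq 2500.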

Sequence	self-splicing fitness (ln) (30 °C)	self-splicing fitness (ln) (37 °C)
CCUGAGCAAUAUUACGAGCG	-2.57 ± 0.14	-0.727 ± 0.14
UAAGAGCAAUAUUACGAUGU	-4.13 ± 0.26	-1.82 ± 0.2
GCUUAGCAAUAUUACGAUUG	-3.31 ± 0.25	-1.01 ± 0.17
UAGAAGCAAUAUUACGCUUC	-2.27 ± 0.18	-2.81 ± 0.22
GCCAAGCAAUAUUACGGAGU	-0.992 ± 0.066	-1.57 ± 0.09
CCGAAGCAAUAUUACGCGAC	-3.1 ± 0.2	-1.48 ± 0.19
ACCAAGCAAUAUUACGCCUA	-1.04 ± 0.11	-0.201 ± 0.11
GAGGAGCAAUAUUACGCGUG	-1.55 ± 0.19	-0.66 ± 0.23
CGGCAGCAAUAUUACGUACU	-0.872 ± 0.052	-0.714 ± 0.06
UACUAGCAAUAUUACGUGUC	-3.38 ± 0.17	-2.79 ± 0.15
ACAUAGCAAUAUUACGGAGU	-3.73 ± 0.12	-2.55 ± 0.13
GGGUAGCAAUAUUACGCGGG	-2.2 ± 0.26	-2.42 ± 0.23
UCUGAGCAAUAUUACGAUUG	-2.97 ± 0.27	-2.39 ± 0.33
GUGUAGCAAUAUUACGCCUG	-3.94 ± 0.25	-0.863 ± 0.13
AGUUAGCAAUAUUACGACUA	-0.154 ± 0.18	0.0802 ± 0.17
GUAUAGCAAUAUUACGUGUA	-1.79 ± 0.2	-1.92 ± 0.18
GGUAAGCAAUAUUACGAGCG	0.017 ± 0.17	0.512 ± 0.17
GUGAAGCAAUAUUACGCCAA	-0.702 ± 0.13	-1.88 ± 0.16
CGUAAGCAAUAUUACGUCUU	-3.7 ± 0.22	-1.37 ± 0.14

Sequence	self-splicing fitness (ln) (30 °C)	self-splicing fitness (ln) (37 °C)
CCGCAGCAAUAUUACGUUGG	-3.26 ± 0.22	-1.52 ± 0.2
GGUAAGCAAUAUUACGAGAA	-2.48 ± 0.42	-2.67 ± 0.37
CUAGAGCAAUAUUACGGGGG	-2.64 ± 0.24	-1.11 ± 0.27
CUGGAGCAAUAUUACGCCUG	-1.22 ± 0.22	-1.39 ± 0.28
UUGAAGCAAUAUUACGUUGG	-1.18 ± 0.089	-0.305 ± 0.15
UACCAGCAAUAUUACGAGCA	-0.673 ± 0.066	0.225 ± 0.09
GGGCAGCAAUAUUACGGCUG	-2.27 ± 0.15	-1.8 ± 0.18
CCAUAGCAAUAUUACGAGCG	-0.63 ± 0.095	-2.73e-06 ± 0.12
CAGCAGCAAUAUUACGGAUA	-3.18 ± 0.24	-2.41 ± 0.17
GGGCAGCAAUAUUACGCUCU	-3.55 ± 0.44	–
UGAGAGCAAUAUUACGGCAA	-1.61 ± 0.33	-1.15 ± 0.18
ACUAAGCAAUAUUACGGACA	-0.625 ± 0.094	-0.362 ± 0.12
CAUGAGCAAUAUUACGAUAA	-3.72 ± 0.35	-1.97 ± 0.3
UCGGAGCAAUAUUACGUCUA	-2.52 ± 0.14	-1.89 ± 0.14
UAUCAGCAAUAUUACGCGCU	-2.73 ± 0.21	-1.76 ± 0.23
GCCUAGCAAUAUUACGGACG	-1.98 ± 0.2	-0.148 ± 0.18
ACUUAGCAAUAUUACGCUUG	-1.7 ± 0.094	-0.865 ± 0.12
ACCGAGCAAUAUUACGCUAC	-3.58 ± 0.19	-2.86 ± 0.24
AGCAAGCAAUAUUACGCUCU	-3 ± 0.22	-1.57 ± 0.17
